Drawing on US20020157126A1 (published 2002), this text covers fold Ki relative to follistatin, Kd and Ki for three molecules.

Assay [1] has as its target T1, myostatin mature C-terminal dimer (purified from conditioned medium of CHO cells) (UniProt O08689 268-376, limits assumed, radio-iodinated (chloramine T method) when used as the labeled ligand).
T1 construct: mature; also called GDF-8; mature C-terminal peptide
T1 sequence (looked up): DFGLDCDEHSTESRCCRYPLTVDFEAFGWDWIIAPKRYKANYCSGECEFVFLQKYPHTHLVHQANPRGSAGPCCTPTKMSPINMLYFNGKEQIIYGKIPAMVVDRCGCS
The experiment in a line: inhibition of labeled myostatin binding to Act RIIB-transfected COS-7 cells, 4 °C; reference is the Ki of follistatin.

Assay [2] has as its target GDF-8 receptor (cell surface binding proteins) on L6 myoblasts. The experiment in a line: receptor-ligand binding assay with I-125 labeled GDF-8 on myoblast cells.
Assay [3] has as its target T1, myostatin mature C-terminal dimer …. The experiment in a line: inhibition of labeled myostatin binding to Act RIIB-transfected COS-7 cells, 4 °C. The procedure:
Receptor binding. Purified myostatin was radioiodinated using the chloramine T method (Frolik, C. A., Wakefield, L. M., Smith, D. M. & Sporn, M. B. (1984) J Biol Chem 259, 10995-11000). COS-7 cells grown in 6 or 12 well plates were transfected with 1-2 μg pCMV5 or pCMV5/receptor construct using lipofectamine (Gibco, Rockville, Md.). Crosslinking experiments were carried out 2 days post transfection as described (Franzén, P., ten Dijke, P., Ichijo, H., Yamashita, H., Schultz, P., Heldin, C.-H. & Miyazono, K. (1993) Cell 75, 681-692). For quantitative receptor binding assays, cell monolayers were washed twice with PBS containing 1 mg/ml BSA and incubated with labeled myostatin in the presence or absence of various concentrations of unlabeled myostatin, pro peptide, or follistatin at 4° C. Cells were then washed 3 times with the same buffer, lysed in 0.5N NaOH, and counted in a gamma counter. Specific binding was calculated as the difference in bound myostatin between cells transfected with Act RIIB and cells transfected with vector.
The effect of the pro peptide and follistatin in vitro was then studied. Both the myostatin pro peptide and follistatin were capable of blocking the binding of the C-terminal dimer to Act RIIB. […]

In assay [1], “myostatin prodomain peptide (purified from CHO cell conditioned medium, HPLC fractions 35-37) (from UniProt O08689 25-267)” registered a fold Ki relative to follistatin of 50 fold.

One may read the Kd as the constant that tells how readily two partners part at equilibrium. Turning to “recombinant human GDF-8 (rhGDF-8) homodimer (from UniProt O14793 267-374) (ligand)”, the Kd in assay [2] worked out at 0.37 nM.

B1: follistatin (other, UniProt P19883-2 30-317, looked up)
chain: GNCWLRQAKNGRCQVLYKTELSKEECCSTGRLSTSWTEEDVNDNTLFKWMIFNGGAPNCIPCKETCENVDCGPGKKCRMNKKNKPRCVCAPDCSNITWKGPVCGLDGKTYRNECALLKARCKEQPELEVQYQGRCKKTCRDVFCPGSSTCVVDQTNNAYCVTCNRICPEPASSEQYLCGNDGVTYSSACHLRKATCLLGRSIGLAYEGKCIKAKSCEDIQCTGGKKCLWDFKVGRGRCSLCDELCPDSKSDEPVCASDNATYASECAMKEAACSSGVLLEVKHSGSCN
The term Ki denotes the equilibrium dissociation constant of an inhibitor or competing ligand from its target. The low end stands for higher affinity, the high end for lower affinity. The molecule B1 yielded an inhibitory constant (Ki) in assay [3] of about 0.47 nM.
